Experimental data as given in patent US20220017622A1 (Pfizer, published 2022).
Positions count from the first letter of the chain named.

T1: human B7-H4 on cells (human, UniProt Q7Z7D3 25-282)
T1 sequence (looked up): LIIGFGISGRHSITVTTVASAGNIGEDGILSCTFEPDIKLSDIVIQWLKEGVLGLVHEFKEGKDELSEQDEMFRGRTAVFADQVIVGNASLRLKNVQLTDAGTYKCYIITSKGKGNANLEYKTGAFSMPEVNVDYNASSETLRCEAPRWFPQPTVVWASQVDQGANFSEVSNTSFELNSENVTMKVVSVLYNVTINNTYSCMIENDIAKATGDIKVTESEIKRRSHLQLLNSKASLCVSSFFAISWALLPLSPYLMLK

B1: B7-H4xCD3 bispecific antibody 1130 (bispecific antibody, IgG2)
heavy 1: EVQLVESGGGLVQPGGSLRLSCAASGGSFSGYYWNWIRQPPGKGLEWIGEINHSGSATYNPSLKSRVTISVDTAKNSLYLQMNSLRAEDTAVYYCARGLYNWNVDHWGQGTLVTVSSASTKGPSVFPLAPCSRSTSESTAALGCLVKDYFPEPVTVSWNSGALTSGVHTFPAVLQSSGLYSLSSVVTVPSSNFGTQTYTCNVDHKPSNTKVDKTVERKCEVECPECPAPPVAGPSVFLFPPKPKDTLMISRTPEVTCVVVAVSHEDPEVQFNWYVDGVEVHNAKTKPREEQFNSTFRVVSVLTVVHQDWLNGKEYKCKVSNKGLPSSIEKTISKTKGQPREPQVYTLPPSREEMTKNQVSLTCEVKGFYPSDIAVEWESNGQPENNYKTTPPMLDSDGSFFLYSKLTVDKSRWQQGNVFSCSVMHEALHNHYTQKSLSLSPG
light 1: DIQMTQSPSSLSASVGDRVTITCRASQGIRNDLGWYQQKPGKAPKRLIYAASSLQSGVPSRFSGSGSGTDFTLTISSLQPEDFATYYCLQHNAYPRTFGGGTKVEIKRTVAAPSVFIFPPSDEQLKSGTASVVCLLNNFYPREAKVQWKVDNALQSGNSQESVTEQDSKDSTYSLSSTLTLSKADYEKHKVYACEVTHQGLSSPVTKSFNRGEC
heavy 2: EVQLVESGGGLVQPGGSLRLSCAASGFTFSDYYMTWVRQAPGKGLEWVAFIRNQARGYTSDHNPSVKGRFTISRDNAKNSLYLQMNSLRAEDTAVYYCARDRPSYYVLDYWGQGTTVTVSSASTKGPSVFPLAPCSRSTSESTAALGCLVKDYFPEPVTVSWNSGALTSGVHTFPAVLQSSGLYSLSSVVTVPSSNFGTQTYTCNVDHKPSNTKVDKTVERKCRVRCPRCPAPPVAGPSVFLFPPKPKDTLMISRTPEVTCVVVAVSHEDPEVQFNWYVDGVEVHNAKTKPREEQFNSTFRVVSVLTVVHQDWLNGKEYKCKVSNKGLPSSIEKTISKTKGQPREPQVYTLPPSREEMTKNQVSLTCLVKGFYPSDIAVEWESNGQPENNYKTTPPMLDSDGSFFLYSRLTVDKSRWQQGNVFSCSVMHEALHNHYTQKSLSLSPGK
light 2: DIQMTQSPSSLSASVGDRVTITCTSSQSLFNVRSQKNYLAWYQQKPGKAPKLLIYWASTRESGVPSRFSGSGSGTDFTLTISSLQPEDFATYYCKQSYDLFTFGGGTKVEIKRTVAAPSVFIFPPSDEQLKSGTASVVCLLNNFYPREAKVQWKVDNALQSGNSQESVTEQDSKDSTYSLSSTLTLSKADYEKHKVYACEVTHQGLSSPVTKSFNRGEC
B2: B7-H4xCD3 bispecific antibody 0090 (bispecific antibody, human IgG1, kappa)
heavy 1: QVQLQQWGAGLLKPSETLSLTCAVYGGSFSGYYWNWIRQPPGKGLEWIGEINHSGSTKYNPSLKSRVTISGDTSKNQFSLKLNSVTAADTAVYYCVRGLYNWNVDSWGQGTLVTVSSASTKGPSVFPLAPSSKSTSGGTAALGCLVKDYFPEPVTVSWNSGALTSGVHTFPAVLQSSGLYSLSSVVTVPSSSLGTQTYICNVNHKPSNTKVDKKVEPKSCDKTHTCPPCPAPEAAGAPSVFLFPPKPKDTLMISRTPEVTCVVVDVSHEDPEVKFNWYVDGVEVHNAKTKPREEQYNSTYRVVSVLTVLHQDWLNGKEYKCKVSNKALPAPIEKTISKAKGQPREPQVYTLPPSREEMTKNQVSLTCEVKGFYPSDIAVEWESNGQPENNYKTTPPVLDSDGSFFLYSKLTVDKSRWQQGNVFSCSVMHEALHNHYTQKSLSLSPG
light 1: B1 light 1 with A50V, D70E, A93S, R96Y, G100Q, V104L
heavy 2: EVQLVESGGGLVQPGGSLRLSCAASGFTFSDYYMTWVRQAPGKGLEWVAFIRNQARGYTSDHNPSVKGRFTISRDNAKNSLYLQMNSLRAEDTAVYYCARDRPSYYVLDYWGQGTTVTVSSASTKGPSVFPLAPSSKSTSGGTAALGCLVKDYFPEPVTVSWNSGALTSGVHTFPAVLQSSGLYSLSSVVTVPSSSLGTQTYICNVNHKPSNTKVDKKVEPKSCDKTHTCPPCPAPEAAGAPSVFLFPPKPKDTLMISRTPEVTCVVVDVSHEDPEVKFNWYVDGVEVHNAKTKPREEQYNSTYRVVSVLTVLHQDWLNGKEYKCKVSNKALPAPIEKTISKAKGQPREPQVYTLPPSREEMTKNQVSLTCLVKGFYPSDIAVEWESNGQPENNYKTTPPVLDSDGSFFLYSRLTVDKSRWQQGNVFSCSVMHEALHNHYTQKSLSLSPG
light 2: B1 light 2
B3: B7-H4xCD3 bispecific antibody 0974 (bispecific antibody, IgG2)
heavy 1: B1 heavy 1 with N52D, S54Q, A57T, T58K
light 1: B1 light 1
heavy 2: B1 heavy 2
light 2: B1 light 2
B4: B7-H4xCD3 bispecific antibody 0980 (bispecific antibody, IgG2)
heavy 1: B1 heavy 1 with N52D, S54Q, A57T, T58K
light 1: B1 light 1 with N92S, A93S
heavy 2: B1 heavy 2
light 2: B1 light 2
B5: B7-H4xCD3 bispecific antibody 1135 (bispecific antibody, IgG2)
heavy 1: B1 heavy 1 with I37V, P40A
light 1: B1 light 1
heavy 2: B1 heavy 2
light 2: B1 light 2
B6: B7-H4xCD3 bispecific antibody 0976 (bispecific antibody, IgG2)
heavy 1: B1 heavy 1 with A24V, N52D, S54Q, A57T, T58K, G98E
light 1: B1 light 1
heavy 2: B1 heavy 2
light 2: B1 light 2
B7: B7-H4xCD3 bispecific antibody 0982 (bispecific antibody, IgG2)
heavy 1: B1 heavy 1 with A24V, N52D, S54Q, A57T, T58K, G98E
light 1: B1 light 1 with N92S, A93S
heavy 2: B1 heavy 2
light 2: B1 light 2
B8: B7-H4xCD3 bispecific antibody 0978 (bispecific antibody, IgG2)
heavy 1: B1 heavy 1 with N52D, S54Q, A57T, T58K, G98E
light 1: B1 light 1 with N92S, A93S
heavy 2: B1 heavy 2
light 2: B1 light 2
B9: B7-H4xCD3 bispecific antibody 1166 (bispecific antibody, IgG2)
heavy 1: EVQLLESGGGLVQPGGSLRLSCAASGFTFSSYAMSWVRQAPGKGLEWVSAISGGGGSTYYADSVKGRFTISRDNSKNTLYLQMNSLRAEDTAVYYCARDIQWYGESTLFDYWGQGTLVTVSSASTKGPSVFPLAPCSRSTSESTAALGCLVKDYFPEPVTVSWNSGALTSGVHTFPAVLQSSGLYSLSSVVTVPSSNFGTQTYTCNVDHKPSNTKVDKTVERKCEVECPECPAPPVAGPSVFLFPPKPKDTLMISRTPEVTCVVVAVSHEDPEVQFNWYVDGVEVHNAKTKPREEQFNSTFRVVSVLTVVHQDWLNGKEYKCKVSNKGLPSSIEKTISKTKGQPREPQVYTLPPSREEMTKNQVSLTCEVKGFYPSDIAVEWESNGQPENNYKTTPPMLDSDGSFFLYSKLTVDKSRWQQGNVFSCSVMHEALHNHYTQKSLSLSPG
light 1: DIQMTQSPSSLSASVGDRVTITCRASQSTRSWLAWYQQKPGKAPKLLIYKASSLEGGVPSRFSGSGSGTDFTLTISSLQPEDFATYYCQQYGSYSRTFGQGTKVEIKRTVAAPSVFIFPPSDEQLKSGTASVVCLLNNFYPREAKVQWKVDNALQSGNSQESVTEQDSKDSTYSLSSTLTLSKADYEKHKVYACEVTHQGLSSPVTKSFNRGEC
heavy 2: B1 heavy 2
light 2: B1 light 2

Target: T1, human B7-H4 on cells
Experiment: cell-based or functional assay
For T cell mediated tumor cell killing, OVCAR3-Luc in this document: unit not given here.

Binder	T cell mediated tumor cell killing EC50, HCC1954-Luc	T cell mediated tumor cell killing, OVCAR3-Luc
B1	73700 nM	810
B2	68 nM	–
B3	764 nM	–
B4	390 nM	–
B5	1200 nM	420
B6	2170 nM	–
B7	2650 nM	–
B8	320 nM	–
B9	15500 nM	800
